# According to article PMC5418834, “Structural analysis of X-linked retinoschisis mutations reveals distinct classes which differentially effect retinoschisin function” (Human Molecular Genetics, 2016):
# Where a chain is given by its changes, count along the chain named. Names may count otherwise. “And” between values parts separate entries of the source, which are not always exact repeats. Equal values may be shown once.
# B1: R141H human retinoschisin (natural protein, UniProt O15537 24-224, looked up)
# chain: STEDEGEDPWYQKACKCDCQGGPNALWSAGATSLDCIPECPYHKPLGFESGEVTPDQITCSNPEQYVGWYSSWTANKARLNSQGFGCAWLSKFQDSSQWLQIDLKEIKVISGILTQGHCDIDEWMTKYSVQYRTDERLNWIYYKDQTGNNRVFYGNSDRTSTVQNLLRPPIISRFIRLIPLGWHVRIAIRMELLECVSKCA
# notes: retinoschisin, human, product of the RS1 gene, with the XLRS-associated mutation R141H; Disease-causing (XLRS) mutation that occurs in patients; Same construct as m1 apart from the mutation; also called R141H retinoschisin; R141H mutant
# B2: H207Q human retinoschisin (natural protein, UniProt O15537 24-224, looked up)
# chain: B1 chain with H118R, H184Q
# notes: retinoschisin, human, product of the RS1 gene, with the XLRS-associated mutation H207Q; Disease-causing (XLRS) mutation that occurs in patients; Same construct as m1 apart from the mutation; also called H207Q retinoschisin; H207Q mutant
# Legend:
# [1] = biological target: wild-type human retinoschisin (human) (UniProt O15537); test: negative-stain EM; 20 µg/ml octamer on carbon coated grids, uranyl acetate, reference-free class averages
# [2] = biological target: wild-type human retinoschisin (human) (UniProt O15537); test: native gel or EMSA; blue-native PAGE and native blot of purified retinoschisin (H207Q at ~0.1 mg/ml)
# [3] = biological target: wild-type human retinoschisin (human) (UniProt O15537); test: cryo-EM structure; 0.1 mg/ml of octamer vitrified on C-Flat R2/2 grids; C8 (wild type) or D8 (R141H) symmetry
# [4] = biological target: wild-type human retinoschisin (human) (UniProt O15537); test: AUC; sedimentation velocity of the octamer fraction, ~0.1 mg/ml, 10 mM Tris pH 7.4, 150 mM NaCl, 20°C, 45,000 rpm
# [5] = biological target: wild-type human retinoschisin (human) (UniProt O15537); test: SEC-MALS; octamer fraction; 10 mM Tris pH 7.4, 150 mM NaCl
# [6] = biological target: the molecule itself; test: as above
# [7] = biological target: the molecule itself; test: native gel or EMSA; blue-native PAGE and native blot of purified retinoschisin (H207Q at ~0.1 mg/ml)
# [8] = biological target: the molecule itself; test: negative-stain EM; 20 µg/ml octamer on carbon coated grids, uranyl acetate, reference-free class averages
Molecule,stoichiometry N [1],stoichiometry N [2],stoichiometry N [3],stoichiometry N [4],stoichiometry N [5],stoichiometry N [6],stoichiometry N [7],stoichiometry N [8]
wild-type human retinoschisin (from UniProt O15537 24-224) (natural protein),8,8 and 16,8 and 16,8,8,,,
B1,,,,,,8,16,
B2,,,,,,,16,8
